The values that follow come from patent US20170056486A1.

The assay concerns the target HLA-A*24 (human). The assay can be described thus: UV-exchange ELISA (anti-b2m); yield 50%-75%. On the technique in general: An ELISA detects its analyte on a solid surface through an enzyme-linked reagent.
Regarding TYGMVMVTF, the peptide exchange yield is 50 to 75%. For TFDGHGVFF the value was 50 to 75%; for QYPYLQAFF, 50 to 75%. For VYAIFRILL the value was 50 to 75%; for VYAEVNSL, 50 to 75%; for IFHEVPLKF, 50 to 75%.

In turn, TYTNTLERL yielded a peptide exchange yield of 50 to 75%. With YYLSDSPLL, the peptide exchange yield lay in the range of 50 to 75%. In the case of SYLTQHQRI, the peptide exchange yield was in the range of 50 to 75%. For LYLPVHYGF the value was 50 to 75%; for RYILENHDF, 50 to 75%. For FYTFPFQQL the value was 50 to 75%. LYSVIKEDF displayed a peptide exchange yield of 50 to 75%.

The molecule RFPVQGTVTF had a peptide exchange yield of 50 to 75%. The figure for SYVKVLHHL is 50 to 75%; for NYLGGTSTI it is 50 to 75%; for IYGFFNENF it is 50 to 75%.

As to RYFKGDYSI, the peptide exchange yield lay in the range of 50 to 75%. For KYTDWTEFL, the peptide exchange yield was 50 to 75%. Consider TYSNSAFQYF, for which the peptide exchange yield lay within 50 to 75%. For NYLVDPVTI the value was 50 to 75%; for SYTSVLSRL, 50 to 75%. The figure for IYQYVADNF is 50 to 75%; for KYLESSATF it is 50 to 75%; for YYSQESKVLYL it is 50 to 75%.

VYQKIILKF yielded a peptide exchange yield of 50 to 75%.

Consider KYVGQLAVL, for which the peptide exchange yield was 50 to 75%. On to SFTKTSPNF, for which the peptide exchange yield is 50 to 75%. The figure for TYGKIDLGF is 50 to 75%; for VYGEPRELL it is 50 to 75%. For NYSPGLVSLIL the value was 50 to 75%; for GYAFTLPLF, 50 to 75%. The figure for IYNPNLLTASKF is 50 to 75%. With TYPSQLPSL, the peptide exchange yield fell in the range of 50 to 75%. The figure for VYKDSIYYI is 50 to 75%; for IYRFITERF it is 50 to 75%. For KYQYVLNEF the value was 50 to 75%; for VYPAEQPQI, 50 to 75%.

VFGKSAYLF showed a peptide exchange yield of 50 to 75%. The figure for EYNEVANLF is 50 to 75%; for DYLKDPVTI it is 50 to 75%. SYLELANTL returned a peptide exchange yield of 50 to 75%. For YYFFVQEKI the value was 50 to 75%.

In turn, VFDTSIAQLF gave a peptide exchange yield of 50 to 75%.

Take IYLEHTESI: the peptide exchange yield is 50 to 75%. As for KYGNFIDKL, the peptide exchange yield is 50 to 75%. For YYLGSGRETF the value was 50 to 75%; for AYAQLGYLL, 50 to 75%. The figure for IFIDNSTQPLHF is 50 to 75%. The figure for QYSIISNVF is 50 to 75%.

Molecule NYAFLHRTL registered a peptide exchange yield of 50 to 75%. Turning to QYGGDLTNTF, the peptide exchange yield was in the range of 50 to 75%.

In turn, VYTKALSSL came in with a peptide exchange yield of 50 to 75%. The figure for QYLTAAALHNL is 50 to 75%; for EYNSDLHQFF it is 50 to 75%.

In turn, SYLPAIWLL returned a peptide exchange yield of 50 to 75%. Turning to VWLPASVLF, the peptide exchange yield was in the range of 50 to 75%.

Molecule VYFEGSDFKF returned a peptide exchange yield of 50 to 75%. The figure for SYLVIHERI is 50 to 75%; for IYAPTLLVF it is 50 to 75%; for VHFEDTGKTLLF it is 50 to 75%. On to EYNSDLHQF, for which the peptide exchange yield lay within 50 to 75%. Regarding IYGEKLQFIF, the peptide exchange yield fell in the range of 50 to 75%. VYLPKIPSW gave a peptide exchange yield of 50 to 75%. The figure for VYVGDALLHAI is 50 to 75%; for FYIPHVPVSF it is 50 to 75%; for EYQEIFQQL it is 50 to 75%. For IYQFVADSF the value was 50 to 75%; for LYPQLFVVL, 50 to 75%.
